# EP4674954A1
# Key:
# [1] = target: mbIL-7-1 (CD52 signal peptide-IL-7-linker 1-BCMA extracellular domain-CD52); experiment: flow cytometry, share of stained cells; TIL sample T001-1 electroporated with mbIL-7-1
# [2] = target: mbIL-7-2 (CD52 signal peptide-IL-7-linker 2-BCMA extracellular domain-CD52); experiment: flow cytometry, share of stained cells; TIL sample T002-2 electroporated with mbIL-7-2
# [3] = target: mbIL-7-2 (CD52 signal peptide-IL-7-linker 2-BCMA extracellular domain-CD52); experiment: flow cytometry, share of stained cells; TIL sample T003-2 electroporated with mbIL-7-2
# [4] = target: mbIL-7-7 (CD52 signal peptide-IL-7-linker 2-BCMA extracellular domain-CD8 transmembrane domain); experiment: flow cytometry, share of stained cells; TIL sample T003-7 electroporated with mbIL-7-7
# Sequence of mbIL-7-7 (CD52 signal peptide-IL-7-linker 2-BCMA extracellular domain-CD8 transmembrane domain) (chain, as listed by the source limits assumed): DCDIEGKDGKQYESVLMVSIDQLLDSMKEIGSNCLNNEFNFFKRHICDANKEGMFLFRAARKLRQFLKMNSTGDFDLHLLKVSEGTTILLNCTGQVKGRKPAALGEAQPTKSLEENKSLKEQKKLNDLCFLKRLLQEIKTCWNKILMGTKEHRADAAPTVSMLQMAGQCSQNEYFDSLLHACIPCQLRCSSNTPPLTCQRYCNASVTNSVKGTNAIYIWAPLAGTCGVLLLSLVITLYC
# [5] = target: mbIL-7-1 (CD52 signal peptide-IL-7-linker 1-BCMA extracellular domain-CD52); experiment: flow cytometry, share of stained cells; TIL sample T004-1 electroporated with mbIL-7-1
# [6] = target: mbIL-7-3 (CD52 signal peptide-IL-7-linker 4-point-mutated BCMA extracellular domain-CD52); experiment: flow cytometry, share of stained cells; TIL sample T005-3 electroporated with mbIL-7-3
# Sequence of mbIL-7-3 (CD52 signal peptide-IL-7-linker 4-point-mutated BCMA extracellular domain-CD52) (chain, as listed by the source limits assumed, change not shown): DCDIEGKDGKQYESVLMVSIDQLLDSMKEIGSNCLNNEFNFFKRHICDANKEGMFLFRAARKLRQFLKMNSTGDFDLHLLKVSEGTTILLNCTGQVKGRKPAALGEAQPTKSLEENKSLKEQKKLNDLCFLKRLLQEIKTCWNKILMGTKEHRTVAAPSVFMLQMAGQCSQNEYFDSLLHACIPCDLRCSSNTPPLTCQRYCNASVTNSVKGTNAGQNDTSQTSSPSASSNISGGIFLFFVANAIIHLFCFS
# [7] = target: mbIL-7-5 (CD52 signal peptide-IL-7-point mutation BCMA extracellular domain-linker 4-CD52); experiment: flow cytometry, share of stained cells; TIL sample T006-5 electroporated with mbIL-7-5
# Sequence of mbIL-7-5 (CD52 signal peptide-IL-7-point mutation BCMA extracellular domain-linker 4-CD52) (chain, as listed by the source limits assumed, change not shown): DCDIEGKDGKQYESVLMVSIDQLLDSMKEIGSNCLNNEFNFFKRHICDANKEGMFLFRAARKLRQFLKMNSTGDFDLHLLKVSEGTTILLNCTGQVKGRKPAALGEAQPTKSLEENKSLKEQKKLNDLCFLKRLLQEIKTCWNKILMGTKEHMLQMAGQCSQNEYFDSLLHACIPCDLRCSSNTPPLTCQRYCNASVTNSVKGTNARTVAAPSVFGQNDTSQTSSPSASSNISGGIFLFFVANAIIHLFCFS
# [8] = target: mbIL-7-6 (CD52 signal peptide-IL-7-linker 3-BCMA extracellular domain-CD52); experiment: flow cytometry, share of stained cells; TIL sample T007-6 electroporated with mbIL-7-6
# Sequence of mbIL-7-6 (CD52 signal peptide-IL-7-linker 3-BCMA extracellular domain-CD52) (chain, as listed by the source limits assumed): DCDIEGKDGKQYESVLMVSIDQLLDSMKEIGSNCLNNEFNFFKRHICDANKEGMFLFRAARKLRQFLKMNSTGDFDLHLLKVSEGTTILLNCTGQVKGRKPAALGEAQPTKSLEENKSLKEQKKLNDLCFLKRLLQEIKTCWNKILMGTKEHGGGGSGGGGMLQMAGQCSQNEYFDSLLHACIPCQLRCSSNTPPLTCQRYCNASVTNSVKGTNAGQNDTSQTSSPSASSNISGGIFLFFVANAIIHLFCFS
# [9] = target: mbIL-7-8 (IL-7 signal peptide-IL-7-linker 2-truncated BCMA extracellular domain-CD52); experiment: flow cytometry, share of stained cells; TIL sample T008-8 electroporated with mbIL-7-8
# Sequence of mbIL-7-8 (IL-7 signal peptide-IL-7-linker 2-truncated BCMA extracellular domain-CD52) (chain, as listed by the source limits assumed): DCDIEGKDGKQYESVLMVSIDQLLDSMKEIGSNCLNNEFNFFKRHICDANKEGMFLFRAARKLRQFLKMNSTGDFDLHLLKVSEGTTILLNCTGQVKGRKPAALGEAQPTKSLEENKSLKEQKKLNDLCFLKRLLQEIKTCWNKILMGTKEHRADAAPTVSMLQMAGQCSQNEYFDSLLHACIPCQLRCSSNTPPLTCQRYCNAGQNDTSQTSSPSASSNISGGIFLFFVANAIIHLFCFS
# [10] = target: mbIL-7-3 (CD52 signal peptide-IL-7-linker 4-point-mutated BCMA extracellular domain-CD52); experiment: flow cytometry, share of stained cells; TIL sample T009-3 electroporated with mbIL-7-3
# [11] = target: mbIL-7-4 (CD52 signal peptide-IL-7-linker 5-truncated point-mutated BCMA extracellular domain-CD8 extracellular hinge region-CD52); experiment: flow cytometry, share of stained cells; TIL sample T010-4 electroporated with mbIL-7-4
# Sequence of mbIL-7-4 (CD52 signal peptide-IL-7-linker 5-truncated point-mutated BCMA extracellular domain-CD8 extracellular hinge region-CD52) (chain, as listed by the source limits assumed, change not shown): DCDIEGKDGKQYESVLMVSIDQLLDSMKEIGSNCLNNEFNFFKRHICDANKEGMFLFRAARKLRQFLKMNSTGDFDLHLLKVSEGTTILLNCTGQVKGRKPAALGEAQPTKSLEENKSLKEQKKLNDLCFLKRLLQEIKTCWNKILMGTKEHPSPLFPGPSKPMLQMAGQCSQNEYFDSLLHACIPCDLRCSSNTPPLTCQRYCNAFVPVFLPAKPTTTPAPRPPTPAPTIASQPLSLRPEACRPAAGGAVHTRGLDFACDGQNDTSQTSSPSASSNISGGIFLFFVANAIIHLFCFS
# [12] = target: mbIL-7-9 (CD52 signal peptide-IL-7-linker 5-truncated point-mutated BCMA extracellular domain-CD52); experiment: flow cytometry, share of stained cells; TIL sample T011-9 electroporated with mbIL-7-9
# Sequence of mbIL-7-9 (CD52 signal peptide-IL-7-linker 5-truncated point-mutated BCMA extracellular domain-CD52) (chain, as listed by the source limits assumed, change not shown): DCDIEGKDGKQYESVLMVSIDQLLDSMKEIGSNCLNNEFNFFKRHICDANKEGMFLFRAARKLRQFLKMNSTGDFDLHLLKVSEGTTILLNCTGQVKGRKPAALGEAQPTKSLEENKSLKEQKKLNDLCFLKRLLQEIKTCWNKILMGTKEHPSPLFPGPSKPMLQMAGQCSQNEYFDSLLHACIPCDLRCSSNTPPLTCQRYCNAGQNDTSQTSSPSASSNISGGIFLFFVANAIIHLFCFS
# [13] = target: mbIL-7-9 (CD52 signal peptide-IL-7-linker 5-truncated point-mutated BCMA extracellular domain-CD52); experiment: flow cytometry, share of stained cells; TIL sample T012-9 electroporated with mbIL-7-9
# [14] = target: mbIL-7-9 (CD52 signal peptide-IL-7-linker 5-truncated point-mutated BCMA extracellular domain-CD52); experiment: flow cytometry, share of stained cells; TIL sample T013-9 electroporated with mbIL-7-9
# [15] = target: mbIL-7-9 (CD52 signal peptide-IL-7-linker 5-truncated point-mutated BCMA extracellular domain-CD52); experiment: flow cytometry, share of stained cells; TIL sample T014-9 electroporated with mbIL-7-9
# Sequence of mbIL-7-1 (CD52 signal peptide-IL-7-linker 1-BCMA extracellular domain-CD52) (chain, as listed by the source limits assumed): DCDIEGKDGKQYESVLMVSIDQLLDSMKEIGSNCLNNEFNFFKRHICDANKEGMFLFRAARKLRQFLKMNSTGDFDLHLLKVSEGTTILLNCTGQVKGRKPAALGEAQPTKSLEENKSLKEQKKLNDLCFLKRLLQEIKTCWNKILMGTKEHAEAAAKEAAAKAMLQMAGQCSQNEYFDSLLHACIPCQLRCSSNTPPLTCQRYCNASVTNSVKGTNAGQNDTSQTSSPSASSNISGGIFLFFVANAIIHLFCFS
# Sequence of mbIL-7-2 (CD52 signal peptide-IL-7-linker 2-BCMA extracellular domain-CD52) (chain, as listed by the source limits assumed): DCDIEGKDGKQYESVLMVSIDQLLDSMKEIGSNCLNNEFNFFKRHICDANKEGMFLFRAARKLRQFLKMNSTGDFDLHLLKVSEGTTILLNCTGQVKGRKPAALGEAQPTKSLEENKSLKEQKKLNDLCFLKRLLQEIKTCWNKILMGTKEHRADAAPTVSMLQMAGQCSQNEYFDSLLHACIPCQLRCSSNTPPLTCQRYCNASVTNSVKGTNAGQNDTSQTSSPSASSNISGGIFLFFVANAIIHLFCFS
substance,measurement,setting,value
"BCMA flow antibody (purchased from Biolegend, catalog number 357504)",Positive rate (%),[1],49.3%
same,Positive rate (%),[2],45.4%
same,Positive rate (%),[3],51.2%
same,Positive rate (%),[4],15.1%
same,Positive rate (%),[5],40.2%
same,Positive rate (%),[6],54.1%
same,Positive rate (%),[7],44.7%
same,Positive rate (%),[8],12.3%
same,Positive rate (%),[9],42.5%
same,Positive rate (%),[10],52%
same,Positive rate (%),[11],43.8%
same,Positive rate (%),[12],47.6%
same,Positive rate (%),[13],50.1%
same,Positive rate (%),[14],45.9%
same,Positive rate (%),[15],41.1%
